Laboratory results from publication PMC7948500, “Comparative interactomes of HSF1 in stress and disease reveal a role for CTCF in HSF1-mediated gene regulation” (The Journal of Biological Chemistry, 2020).

Molecular target: T1, His6-tagged CTCF (human, UniProt P49711 1-727)
T1 construct: CTCF, human, codon-optimized for bacterial expression, in pET-15b; printed both as CTCF-His and His-CTCF; pET-15b usually adds an N-terminal His tag; also called His-CTCF; CTCF-His; source: E. coli BL21 (DE3), purified (Ni-NTA agarose)
T1 sequence (looked up): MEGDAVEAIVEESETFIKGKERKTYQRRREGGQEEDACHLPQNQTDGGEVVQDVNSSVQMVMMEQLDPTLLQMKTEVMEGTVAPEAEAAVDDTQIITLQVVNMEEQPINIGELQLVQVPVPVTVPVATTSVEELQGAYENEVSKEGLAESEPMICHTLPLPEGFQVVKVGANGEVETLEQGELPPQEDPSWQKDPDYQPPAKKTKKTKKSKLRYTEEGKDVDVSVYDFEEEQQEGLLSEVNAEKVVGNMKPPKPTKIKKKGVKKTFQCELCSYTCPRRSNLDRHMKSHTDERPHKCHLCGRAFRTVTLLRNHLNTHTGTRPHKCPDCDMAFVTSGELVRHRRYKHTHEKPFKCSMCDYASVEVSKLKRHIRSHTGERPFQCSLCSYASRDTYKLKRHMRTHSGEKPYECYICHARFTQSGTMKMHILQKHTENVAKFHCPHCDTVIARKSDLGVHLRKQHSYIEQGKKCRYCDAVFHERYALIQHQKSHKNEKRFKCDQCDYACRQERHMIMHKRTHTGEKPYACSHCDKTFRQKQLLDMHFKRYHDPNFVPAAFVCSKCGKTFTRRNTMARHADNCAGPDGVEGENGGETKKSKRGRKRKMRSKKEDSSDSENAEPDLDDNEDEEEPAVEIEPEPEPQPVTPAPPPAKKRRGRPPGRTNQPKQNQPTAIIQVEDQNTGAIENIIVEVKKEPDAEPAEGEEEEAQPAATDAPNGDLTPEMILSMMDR
Assay: pull-down; in vitro STREP pull-down: 5 nM purified His-CTCF alone or with STREP-HSF1 in 1 ml Buffer NP (50 mM NaH2PO4, 300 mM NaCl, pH 8.0), 1 h at 4 °C, MagStrep type 3 XT resin, five washes, eluted with 25 mM desthiobiotin; immunoblot
Conditions: both partners purified

binding result: binds
B1: STREP-HSF1 (natural protein, human, UniProt Q00613 1-529, looked up)
chain: MDLPVGPGAAGPSNVPAFLTKLWTLVSDPDTDALICWSPSGNSFHVFDQGQFAKEVLPKYFKHNNMASFVRQLNMYGFRKVVHIEQGGLVKPERDDTEFQHPCFLRGQEQLLENIKRKVTSVSTLKSEDIKIRQDSVTKLLTDVQLMKGKQECMDSKLLAMKHENEALWREVASLRQKHAQQQKVVNKLIQFLISLVQSNRILGVKRKIPLMLNDSGSAHSMPKYSRQFSLEHVHGSGPYSAPSPAYSSSSLYAPDAVASSGPIISDITELAPASPMASPGGSIDERPLSSSPLVRVKEEPPSPPQSPRVEEASPGRPSSVDTLLSPTALIDSILRESEPAPASVTALTDARGHTDTEGRPPSPPPTSTPEKCLSVACLDKNELSDHLDAMDSNLDNLQTMLSSHGFSVDTSALLDLFSPSVTVPDMSLPDLDSSLASIQELLSPQEPPRPPEAENSSPDSGKQLVHYTAQPLFLLDPGSVDTGSNDLPVLFELGEGSYFSEGDGFAEDPTISLLTGSEPPKAKDPTVS
notes: HSF1, human, codon-optimized for bacterial expression; also called STREP-tagged HSF1; source: E. coli BL21 (DE3), purified (StrepTrap column)
